Test results taken from US20180155451A1 (published 2018).

B1: GpH7-B3 variant K326_14T/GpL16-k0 (antibody, human IgG1, kappa)
heavy: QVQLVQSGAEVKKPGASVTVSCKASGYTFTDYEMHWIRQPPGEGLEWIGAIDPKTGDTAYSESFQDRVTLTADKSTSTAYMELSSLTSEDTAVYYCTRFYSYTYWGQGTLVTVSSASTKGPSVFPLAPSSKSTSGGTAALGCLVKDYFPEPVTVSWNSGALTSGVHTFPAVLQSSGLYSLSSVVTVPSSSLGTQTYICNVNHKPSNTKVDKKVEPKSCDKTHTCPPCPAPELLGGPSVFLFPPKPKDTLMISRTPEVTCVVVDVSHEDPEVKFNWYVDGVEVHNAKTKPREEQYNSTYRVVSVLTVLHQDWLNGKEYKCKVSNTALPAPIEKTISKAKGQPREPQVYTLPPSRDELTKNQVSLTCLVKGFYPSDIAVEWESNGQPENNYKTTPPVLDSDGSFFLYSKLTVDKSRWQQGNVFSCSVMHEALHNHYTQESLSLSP
light: DIVMTQSPLSLPVTPGEPASISCQASESLVHSNRNTYLHWYLQKPGQSPQLLIYKVSNRFSGVPDRFSGSGSGTDFTLKISRVEAEDVGVYYCSQNTHVPPTFGQGTKVEIERTVAAPSVFIFPPSDEQLKSGTASVVCLLNNFYPREAKVQWKVDNALQSGNSQESVTEQDSKDSTYSLSSTLTLSKADYEKHKVYACEVTHQGLSSPVTKSFNRGEC
notes: homodimerized; mutation in both H chains; also called Ho Ab
B2: GpH7-B3 variant K334_18N/GpL16-k0 (antibody, human IgG1, kappa)
heavy: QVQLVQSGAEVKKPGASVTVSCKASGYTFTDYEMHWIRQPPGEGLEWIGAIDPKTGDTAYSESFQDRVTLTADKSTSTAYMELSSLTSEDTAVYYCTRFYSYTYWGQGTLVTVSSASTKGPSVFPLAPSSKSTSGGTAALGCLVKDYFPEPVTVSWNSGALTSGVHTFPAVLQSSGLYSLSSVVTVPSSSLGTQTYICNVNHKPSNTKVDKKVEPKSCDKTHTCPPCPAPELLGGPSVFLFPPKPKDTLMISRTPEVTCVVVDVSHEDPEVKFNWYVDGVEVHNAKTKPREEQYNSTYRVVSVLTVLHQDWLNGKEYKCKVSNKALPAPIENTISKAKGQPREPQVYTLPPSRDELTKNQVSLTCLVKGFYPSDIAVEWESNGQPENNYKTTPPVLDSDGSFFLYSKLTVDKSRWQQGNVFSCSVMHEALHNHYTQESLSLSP
light: B1 light
notes: as for B1
B3: GpH7-B3 variant K326_06M/GpL16-k0 (antibody, human IgG1, kappa)
heavy: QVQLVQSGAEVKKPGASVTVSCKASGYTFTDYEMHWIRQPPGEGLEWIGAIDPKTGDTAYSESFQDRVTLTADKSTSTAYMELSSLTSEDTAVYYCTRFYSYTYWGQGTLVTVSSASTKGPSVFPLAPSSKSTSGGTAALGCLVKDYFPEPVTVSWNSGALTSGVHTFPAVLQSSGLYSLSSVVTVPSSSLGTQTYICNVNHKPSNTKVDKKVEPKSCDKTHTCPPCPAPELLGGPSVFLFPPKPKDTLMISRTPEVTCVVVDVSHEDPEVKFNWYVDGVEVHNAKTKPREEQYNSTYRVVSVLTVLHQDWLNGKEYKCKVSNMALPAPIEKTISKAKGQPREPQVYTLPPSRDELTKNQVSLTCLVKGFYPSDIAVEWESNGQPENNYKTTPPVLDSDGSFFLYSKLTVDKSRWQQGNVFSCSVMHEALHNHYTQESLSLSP
light: B1 light
notes: as for B1
B4: GpH7-B3 variant T335_06M/GpL16-k0 (antibody, human IgG1, kappa)
heavy: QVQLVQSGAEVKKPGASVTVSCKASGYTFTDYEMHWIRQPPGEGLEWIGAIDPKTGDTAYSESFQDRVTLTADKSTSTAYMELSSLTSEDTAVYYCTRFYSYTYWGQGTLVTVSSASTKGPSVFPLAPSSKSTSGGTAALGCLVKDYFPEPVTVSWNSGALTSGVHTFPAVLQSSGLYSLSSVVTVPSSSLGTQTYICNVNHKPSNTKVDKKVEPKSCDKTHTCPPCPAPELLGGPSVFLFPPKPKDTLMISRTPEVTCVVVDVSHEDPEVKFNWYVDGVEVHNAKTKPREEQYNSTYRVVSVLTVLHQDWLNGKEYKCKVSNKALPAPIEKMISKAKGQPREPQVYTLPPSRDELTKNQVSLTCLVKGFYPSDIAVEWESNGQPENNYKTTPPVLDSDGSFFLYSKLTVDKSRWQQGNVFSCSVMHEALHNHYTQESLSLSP
light: B1 light
notes: as for B1
B5: GpH7-B3 variant V266_06M/GpL16-k0 (antibody, human IgG1, kappa)
heavy: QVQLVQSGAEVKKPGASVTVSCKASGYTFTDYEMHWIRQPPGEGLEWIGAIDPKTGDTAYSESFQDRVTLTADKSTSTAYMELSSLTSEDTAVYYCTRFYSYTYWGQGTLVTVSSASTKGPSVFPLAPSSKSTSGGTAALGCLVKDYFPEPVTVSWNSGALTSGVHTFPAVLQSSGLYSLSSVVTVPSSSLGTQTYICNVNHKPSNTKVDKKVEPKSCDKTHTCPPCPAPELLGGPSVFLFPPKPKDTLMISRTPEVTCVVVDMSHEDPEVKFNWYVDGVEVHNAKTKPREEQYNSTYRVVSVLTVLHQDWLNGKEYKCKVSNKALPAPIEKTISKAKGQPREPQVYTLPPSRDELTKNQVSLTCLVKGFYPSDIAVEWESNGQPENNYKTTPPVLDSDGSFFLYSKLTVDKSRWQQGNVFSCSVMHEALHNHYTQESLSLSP
light: B1 light
notes: as for B1
B6: GpH7-B3 variant T335_04F/GpL16-k0 (antibody, human IgG1, kappa)
heavy: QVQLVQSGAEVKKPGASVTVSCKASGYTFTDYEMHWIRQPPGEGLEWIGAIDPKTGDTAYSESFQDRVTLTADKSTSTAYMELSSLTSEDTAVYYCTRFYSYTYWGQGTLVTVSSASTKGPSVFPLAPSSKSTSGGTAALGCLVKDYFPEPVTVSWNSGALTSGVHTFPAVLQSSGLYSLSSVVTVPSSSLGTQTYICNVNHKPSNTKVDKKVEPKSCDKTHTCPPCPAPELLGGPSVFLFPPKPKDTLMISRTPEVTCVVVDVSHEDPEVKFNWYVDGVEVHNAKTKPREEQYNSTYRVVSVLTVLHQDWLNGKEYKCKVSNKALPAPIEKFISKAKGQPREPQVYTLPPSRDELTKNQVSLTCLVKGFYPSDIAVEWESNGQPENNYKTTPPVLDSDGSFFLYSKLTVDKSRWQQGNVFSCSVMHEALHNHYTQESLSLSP
light: B1 light
notes: as for B1
B7: GpH7-B3 variant S337_14T/GpL16-k0 (antibody, human IgG1, kappa)
heavy: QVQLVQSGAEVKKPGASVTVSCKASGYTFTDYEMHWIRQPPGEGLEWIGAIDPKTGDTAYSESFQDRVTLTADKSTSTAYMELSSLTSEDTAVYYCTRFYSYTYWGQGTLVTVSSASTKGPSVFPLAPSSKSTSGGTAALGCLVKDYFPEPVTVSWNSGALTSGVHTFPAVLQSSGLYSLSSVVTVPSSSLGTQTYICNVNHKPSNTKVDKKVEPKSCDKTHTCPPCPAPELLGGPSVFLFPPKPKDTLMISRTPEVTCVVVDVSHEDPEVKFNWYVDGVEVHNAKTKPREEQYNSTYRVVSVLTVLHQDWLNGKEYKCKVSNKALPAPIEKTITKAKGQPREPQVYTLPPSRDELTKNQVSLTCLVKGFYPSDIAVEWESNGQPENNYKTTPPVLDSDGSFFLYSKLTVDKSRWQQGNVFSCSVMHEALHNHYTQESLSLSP
light: B1 light
notes: as for B1
B8: GpH7-B3 variant Y296_20W/GpL16-k0 (antibody, human IgG1, kappa)
heavy: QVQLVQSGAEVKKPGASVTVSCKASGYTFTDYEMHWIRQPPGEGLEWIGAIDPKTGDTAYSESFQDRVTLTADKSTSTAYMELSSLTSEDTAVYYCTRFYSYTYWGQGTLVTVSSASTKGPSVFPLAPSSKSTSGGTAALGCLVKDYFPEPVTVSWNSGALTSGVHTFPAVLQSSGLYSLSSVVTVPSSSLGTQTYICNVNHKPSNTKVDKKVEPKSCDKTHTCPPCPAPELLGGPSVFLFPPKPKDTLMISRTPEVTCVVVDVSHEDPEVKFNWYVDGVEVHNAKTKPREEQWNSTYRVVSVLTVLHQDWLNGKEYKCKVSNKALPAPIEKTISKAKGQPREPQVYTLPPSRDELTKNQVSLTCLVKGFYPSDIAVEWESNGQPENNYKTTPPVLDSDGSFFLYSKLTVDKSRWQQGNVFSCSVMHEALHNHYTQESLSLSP
light: B1 light
notes: as for B1
B9: GpH7-B3 variant L328_06M/GpL16-k0 (antibody, human IgG1, kappa)
heavy: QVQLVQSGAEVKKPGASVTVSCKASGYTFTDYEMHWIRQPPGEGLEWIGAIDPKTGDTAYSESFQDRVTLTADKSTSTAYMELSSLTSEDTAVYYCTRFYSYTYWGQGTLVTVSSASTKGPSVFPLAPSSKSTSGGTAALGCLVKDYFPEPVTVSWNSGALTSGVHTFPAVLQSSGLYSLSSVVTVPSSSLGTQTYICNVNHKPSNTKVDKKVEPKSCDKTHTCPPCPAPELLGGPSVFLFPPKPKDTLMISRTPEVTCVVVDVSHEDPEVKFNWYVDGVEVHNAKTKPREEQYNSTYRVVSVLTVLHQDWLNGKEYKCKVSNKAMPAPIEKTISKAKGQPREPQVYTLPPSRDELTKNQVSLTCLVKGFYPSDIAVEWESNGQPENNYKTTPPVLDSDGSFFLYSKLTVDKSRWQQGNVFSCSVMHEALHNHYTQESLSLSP
light: B1 light
notes: as for B1
B10: GpH7-A5/GpH7-B3 variant T335_15Y/GpL16-k0 (antibody, human IgG1, kappa)
heavy 1: not shown
heavy 2: not shown
light: B1 light
notes: heterodimerized; mutation in one H chain only; also called He Ab
B11: GpH7-A5/GpH7-B3 variant K326_14T/GpL16-k0 (antibody, human IgG1, kappa)
heavy 1: not shown
heavy 2: not shown
light: B1 light
notes: as for B10
B12: GpH7-A5/GpH7-B3 variant K326_06M/GpL16-k0 (antibody, human IgG1, kappa)
heavy 1: not shown
heavy 2: not shown
light: B1 light
notes: as for B10
B13: GpH7-A5/GpH7-B3 variant K326_09D/GpL16-k0 (antibody, human IgG1, kappa)
heavy 1: not shown
heavy 2: not shown
light: B1 light
notes: as for B10
B14: GpH7-A5/GpH7-B3 variant K334_03V/GpL16-k0 (antibody, human IgG1, kappa)
heavy 1: not shown
heavy 2: not shown
light: B1 light
notes: as for B10
B15: GpH7-A5/GpH7-B3 variant K326_16H/GpL16-k0 (antibody, human IgG1, kappa)
heavy 1: not shown
heavy 2: not shown
light: B1 light
notes: as for B10
B16: GpH7-A5/GpH7-B3 variant G236_10E/GpL16-k0 (antibody, human IgG1, kappa)
heavy 1: not shown
heavy 2: not shown
light: B1 light
notes: as for B10
B17: GpH7-A5/GpH7-B3 variant K326_10E/GpL16-k0 (antibody, human IgG1, kappa)
heavy 1: not shown
heavy 2: not shown
light: B1 light
notes: as for B10
B18: GpH7-A5/GpH7-B3 variant H268_18N/GpL16-k0 (antibody, human IgG1, kappa)
heavy 1: not shown
heavy 2: not shown
light: B1 light
notes: as for B10
B19: GpH7-A5/GpH7-B3 variant I332_04F/GpL16-k0 (antibody, human IgG1, kappa)
heavy 1: not shown
heavy 2: not shown
light: B1 light
notes: as for B10
B20: GpH7-A5/GpH7-B3 variant H268_10E/GpL16-k0 (antibody, human IgG1, kappa)
heavy 1: not shown
heavy 2: not shown
light: B1 light
notes: as for B10
B21: GpH7-A5/GpH7-B3 variant I332_15Y/GpL16-k0 (antibody, human IgG1, kappa)
heavy 1: not shown
heavy 2: not shown
light: B1 light
notes: as for B10
B22: GpH7-A5/GpH7-B3 variant H268_09D/GpL16-k0 (antibody, human IgG1, kappa)
heavy 1: not shown
heavy 2: not shown
light: B1 light
notes: as for B10
B23: GpH7-A5/GpH7-B3 variant H268_13S/GpL16-k0 (antibody, human IgG1, kappa)
heavy 1: not shown
heavy 2: not shown
light: B1 light
notes: as for B10
B24: GpH7-A5/GpH7-B3 variant I332_09D/GpL16-k0 (antibody, human IgG1, kappa)
heavy 1: not shown
heavy 2: not shown
light: B1 light
notes: as for B10
B25: GpH7-A5/GpH7-B3 variant K326_19Q/GpL16-k0 (antibody, human IgG1, kappa)
heavy 1: not shown
heavy 2: not shown
light: B1 light
notes: as for B10
B26: GpH7-A5/GpH7-B3 variant I332_10E/GpL16-k0 (antibody, human IgG1, kappa)
heavy 1: not shown
heavy 2: not shown
light: B1 light
notes: as for B10
B27: GpH7-A5/GpH7-B3 variant G236_09D/GpL16-k0 (antibody, human IgG1, kappa)
heavy 1: not shown
heavy 2: not shown
light: B1 light
notes: as for B10
B28: GpH7-A5/GpH7-B3 variant K334_07I/GpL16-k0 (antibody, human IgG1, kappa)
heavy 1: not shown
heavy 2: not shown
light: B1 light
notes: as for B10

Biological target: T1, FcγRIIa R (human, UniProt P12318 34-217)
T1 construct: extracellular domain; Soluble extracellular domain with C-terminal His tag, expressed in FreeStyle293 cells; also called FcgRIIa R; FcγRIIa type R; not shown: His tag attached to the C terminus
T1 sequence (looked up): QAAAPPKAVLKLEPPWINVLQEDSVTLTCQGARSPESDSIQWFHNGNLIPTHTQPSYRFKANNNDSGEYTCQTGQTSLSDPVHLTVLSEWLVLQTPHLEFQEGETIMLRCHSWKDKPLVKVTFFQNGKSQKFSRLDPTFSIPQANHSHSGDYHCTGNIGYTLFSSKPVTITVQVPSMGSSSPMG
Assay: SPR (Biacore), antibody captured via antigen peptide, FcγRIIa R as analyte; homodimerized antibody
Experimental: (§1) Analysis of interaction between objective antibody and the FcγR was carried out using Biacore T100 (GE Healthcare). HBS-EP+ (GE Healthcare) was used as the running buffer, and the measurement temperature was set to 25° C. Chips produced by immobilizing the antigen peptide by the amine coupling method to a Series S Sencor Chip CM5 (GE Healthcare), or alternatively, chips produced by allowing preliminarily biotinylated antigen peptides to interact with and immobilize onto a Series S Sensor Chip SA (certified) (GE Healthcare) were used. Antibodies of interest were captured onto an antigen peptide-immobilized chip, and allowed to interact to each FcγR diluted with running buffer. To regenerate and repeatedly use the chip, the antibodies captured on the chip were washed off by reacting 10 mM glycine-HCl, pH 1.5.

Ho/Con_2aR | Binder
141 % of control (GpH7-B3/GpL16-k0 = 100) | B1
113 % of control (GpH7-B3/GpL16-k0 = 100) | B2
143 % of control (GpH7-B3/GpL16-k0 = 100) | B3
107 % of control (GpH7-B3/GpL16-k0 = 100) | B4
146 % of control (GpH7-B3/GpL16-k0 = 100) | B5
108 % of control (GpH7-B3/GpL16-k0 = 100) | B6
110 % of control (GpH7-B3/GpL16-k0 = 100) | B7
107 % of control (GpH7-B3/GpL16-k0 = 100) | B8
124 % of control (GpH7-B3/GpL16-k0 = 100) | B9

Biological target: T1, FcγRIIa R
Assay: SPR (Biacore), antibody captured via antigen peptide, FcγRIIa R as analyte; heterodimerized antibody
Experimental: as §1

He/Con_2aR | Binder
111 % of control (GpH7-A5/GpH7-B3/GpL16-k0 = 100) | B10
134 % of control (GpH7-A5/GpH7-B3/GpL16-k0 = 100) | B11
138 % of control (GpH7-A5/GpH7-B3/GpL16-k0 = 100) | B12
148 % of control (GpH7-A5/GpH7-B3/GpL16-k0 = 100) | B13
117 % of control (GpH7-A5/GpH7-B3/GpL16-k0 = 100) | B14
120 % of control (GpH7-A5/GpH7-B3/GpL16-k0 = 100) | B15
125 % of control (GpH7-A5/GpH7-B3/GpL16-k0 = 100) | B16
148 % of control (GpH7-A5/GpH7-B3/GpL16-k0 = 100) | B17
128 % of control (GpH7-A5/GpH7-B3/GpL16-k0 = 100) | B18
105 % of control (GpH7-A5/GpH7-B3/GpL16-k0 = 100) | B19
148 % of control (GpH7-A5/GpH7-B3/GpL16-k0 = 100) | B20
110 % of control (GpH7-A5/GpH7-B3/GpL16-k0 = 100) | B21
149 % of control (GpH7-A5/GpH7-B3/GpL16-k0 = 100) | B22
127 % of control (GpH7-A5/GpH7-B3/GpL16-k0 = 100) | B23
119 % of control (GpH7-A5/GpH7-B3/GpL16-k0 = 100) | B24
129 % of control (GpH7-A5/GpH7-B3/GpL16-k0 = 100) | B25
114 % of control (GpH7-A5/GpH7-B3/GpL16-k0 = 100) | B26
106 % of control (GpH7-A5/GpH7-B3/GpL16-k0 = 100) | B27
114 % of control (GpH7-A5/GpH7-B3/GpL16-k0 = 100) | B28
